In the RNAGym collection of RNA variant scans (doi:10.7554/elife.80360):

B1: Hairpin Ribozyme (parent)
chain: GUCCUCUUUCACGUGCGCGUGAAAGAGAGAAGUGAACCAGAGAAACACACGUUGUGGUAUAUUACCUGGUA

Variants of: B1
Assay: self-cleavage, relative activity (ratio to wild type); higher = more cleavage; co-transcriptional

| Variant | self-cleavage |
| --- | --- |
| C10A U58A | 0.485 |
| C10G U58A | 0.591 |
| A11C A61C | 0.24 |
| A11G A61C | 0.14 |
| C10A A11G | 0.644 |
| C10A A11C | 0.624 |
| C10G A11U | 0.358 |
| C10G A11C | 0.799 |
| C10A C38U | 0.425 |
| C10A G15A | 0.773 |
| C10A G15C | 0.755 |
| U9G G51U | 0.814 |
| U9G U55A | 0.179 |
| C10U C50U | 0.391 |
| C10U C50A | 0.18 |
| C10U A43G | 0.113 |
| C10U A43C | 0.189 |
| U9G G19A | 0.548 |
| C10A C12A | 0.476 |
| C10U G13A | 0.662 |
| C10A G54C | 0.355 |

| Variant | self-cleavage |
| --- | --- |
| A11G A49C | 0.124 |
| C10A A22U | 0.632 |
| C10A A22G | 0.607 |
| C10U G32C | 0.17 |
| U9G A26G | 0.386 |
| U9G A26C | 0.418 |
| U9G C37G | 0.229 |
| U9G C37A | 0.117 |
| C10G G34C | 1.08 |
| C10G C65A | 0.746 |
| C10G A26G | 0.776 |
| C10G A26C | 0.383 |
| C10G A26U | 0.352 |
| C10U G17U | 0.665 |
| C10A G56U | 0.148 |
| C10U C48G | 0.134 |
| C10U C48A | 0.104 |
| C10U U53G | 0.725 |
| C10U U53A | 0.733 |
| A11C A35G | 0.837 |
| A11C A35U | 0.643 |

| Variant | self-cleavage |
| --- | --- |
| C10A A30G | 0.131 |
| C10A A30U | 0.156 |
| C10A A30C | 0.122 |
| U9G A64G | 0.478 |
| U9G A64C | 0.164 |
| C10G A23C | 0.416 |
| C10G C18G | 0.621 |
| C10G C18A | 0.907 |
| C10A G57A | 0.162 |
| C10A A35C | 0.846 |
| C10U G21U | 0.815 |
| C10G G25U | 0.481 |
| C10G G25A | 0.211 |
| C10A A31C | 0.09 |
| U9G U53G | 0.656 |
| U9G G34C | 0.833 |
| U9G G34A | 0.8 |
| C10U U52C | 0.949 |
| C10U U52G | 0.564 |
| C10A U62C | 0.241 |
| C10A U62G | 0.162 |

| Variant | self-cleavage |
| --- | --- |
| C10G A31C | 0.198 |
| C10G A31G | 0.576 |
| C10G U70C | 0.93 |
| C10G U70A | 0.592 |
| A11G A35G | 0.764 |
| C10G A49G | 0.343 |
| A11C G25C | 0.457 |
| A11C G25A | 0.504 |
| C10G U63G | 0.113 |
| C10G U63C | 0.104 |
| C10G U63A | 0.158 |
| U9G A35C | 0.637 |
| A11G A30G | 0.269 |
| A11G A30C | 0.146 |
| C10G G57C | 0.124 |
| C10G G57A | 0.0913 |
| C10A G34A | 0.92 |
| C10A G34U | 1.01 |
| A11G A64G | 0.507 |
| A11G A64C | 0.114 |
| A11G A64U | 0.111 |
